According to the supplement of paper PMC5998384:

Experiments:
[1] = test system: HeLa Kyoto; assay: solubility in G1/S (NP-40 vs SDS abundance) (log2 ratio); higher = more soluble; conditions: cell cycle stage: G1/S
[2] = test system: HeLa Kyoto; assay: melting temperature (median over replicates), in situ; higher = more thermally stable
[3] = test system: HeLa Kyoto; assay: solubility change mitosis vs G1/S (difference of NP-40 vs SDS log2 ratios) (log2 ratio difference); higher = more soluble in mitosis
[4] = test system: HeLa Kyoto; assay: thermal stability score vs G1/S (z-score of summed log2 fold changes over temperatures); higher = more thermally stable than in G1/S
[5] = cell cycle stage: early G1 (4.5 h after nocodazole release)
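Wherever melting temperature (median over replicates), in situ is given: HeLa Kyoto cells synchronized by double thymidine or nocodazole block, proteins quantified by TMT10plex mass spectrometry, three independent biological replicates.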
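Wherever solubility change mitosis vs G1/S (difference of NP-40 vs SDS log2 ratios) is given: synchronized HeLa Kyoto cells (double thymidine block for G1/S, nocodazole release for mitosis), protein amounts in NP-40 versus SDS lysates quantified by mass spectrometry, three biological replicates.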
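Wherever solubility in G1/S (NP-40 vs SDS abundance) is given: HeLa Kyoto cells arrested at G1/S by double thymidine block, proteins quantified by TMT10plex mass spectrometry in mild NP-40 versus SDS extracts, three biological replicates.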
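Wherever thermal stability score vs G1/S (z-score of summed log2 fold changes over temperatures) is given: synchronized HeLa Kyoto cells, proteins quantified by TMT10plex mass spectrometry, three biological replicates, mitosis taken 0.5 h after nocodazole release, G1/S directly after double thymidine block.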

Sequence	solubility in G1/S (log2) [1]	melting temperature ([2]; cell cycle stage: G1/S) [°C]	melting temperature ([2]; cell cycle stage: mitosis) [°C]	solubility change mitosis (log2) [3]	thermal stability score [4, 5]	thermal stability score ([4]; cell cycle stage: mitosis)
MGDPSKQDILTIFKRLRSVPTNKVCFDCGAKNPSWASITYGVFLCIDCSGSHRSLGVHLSFIRSTELDSNWSWFQLRCMQVGGNASASSFFHQHGCSTNDTNAKYNSRAAQLYREKIKSLASQATRKHGTDLWLDSCVVPPLSPPPKEEDFFASHVSPEVSDTAWASAIAEPSSLTSRPVETTLENNEGGQEQGPSVEGLNVPTKATLEVSSIIKKKPNQAKKGLGAKKGSLGAQKLANTCFNEIEKQAQAADKMKEQEDLAKVVSKEESIVSSLRLAYKDLEIQMKKDEKMNISGKKNVDSDRLGMGFGNCRSVISHSVTSDMQTIEQESPIMAKPRKKYNDDSDDSYFTSSSSYFDEPVELRSSSFSSWDDSSDSYWKKETSKDTETVLKTTGYSDRPTARRKPDYEPVENTDEAQKKFGNVKAISSDMYFGRQSQADYETRARLERLSASSSISSADLFEEPRKQPAGNYSLSSVLPNAPDMAQFKQGVRSVAGKLSVFANGVVTSIQDRYGS [ARFGAP3]	0.135	51.3	51.4	-0.125	-0.314	0.332
MGDVLSTHLDDARRQHIAEKTGKILTEFLQFYEDQYGVALFNSMRHEIEGTGLPQAQLLWRKVPLDERIVFSGNLFQHQEDSKKWRNRFSLVPHNYGLVLYENKAAYERQVPPRAVINSAGYKILTSVDQYLELIGNSLPGTTAKSGSAPILKCPTQFPLILWHPYARHYYFCMMTEAEQDKWQAVLQDCIRHCNNGIPEDSKVEGPAFTDAIRMYRQSKELYGTWEMLCGNEVQILSNLVMEELGPELKAELGPRLKGKPQERQRQWIQISDAVYHMVYEQAKARFEEVLSKVQQVQPAMQAVIRTDMDQIITSKEHLASKIRAFILPKAEVCVRNHVQPYIPSILEALMVPTSQGFTEVRDVFFKEVTDMNLNVINEGGIDKLGEYMEKLSRLAYHPLKMQSCYEKMESLRLDGLQQRFDVSSTSVFKQRAQIHMREQMDNAVYTFETLLHQELGKGPTKEELCKSIQRVLERVLKKYDYDSSSVRKRFFREALLQISIPFLLKKLAPTCKSELPRFQELIFEDFARFILVENTYEEVVLQTVMKDILQAVKEAAVQRKHNLYRDSMVMHNSDPNLHLLAEGAPIDWGEEYSNSGGGGSPSPSTPESATLSEKRRRAKQVVSVVQDEEVGLPFEASPESPPPASPDGVTEIRGLLAQGLRPESPPPAGPLLNGAPAGESPQPKAAPEASSPPASPLQHLLPGKAVDLGPPKPSDQETGEQVSSPSSHPALHTTTEDSAGVQTEF [FAM129B]	0.283	51.6	51.2	-0.0461	-0.711	2.24
MGEFNEKKTTCGTVCLKYLLFTYNCCFWLAGLAVMAVGIWTLALKSDYISLLASGTYLATAYILVVAGTVVMVTGVLGCCATFKERRNLLRLYFILLLIIFLLEIIAGILAYAYYQQLNTELKENLKDTMTKRYHQPGHEAVTSAVDQLQQEFHCCGSNNSQDWRDSEWIRSQEAGGRVVPDSCCKTVVALCGQRDHASNIYKVEGGCITKLETFIQEHLRVIGAVGIGIACVQVFGMIFTCCLYRSLKLEHY [CD151]	-0.288	60	61.3	0.0099	0.401	-1.63
MGEKSENCGVPEDLLNGLKVTDTQEAECAGPPVPDPKNQHSQSKLLRDDEAHLQEDQGEEECFHDCSASFEEEPGADKVENKSNEDVNSSELDEEYLIELEKNMSDEEKQKRREESTRLKEEGNEQFKKGDYIEAESSYSRALEMCPSCFQKERSILFSNRAAARMKQDKKEMAINDCSKAIQLNPSYIRAILRRAELYEKTDKLDEALEDYKSILEKDPSIHQAREACMRLPKQIEERNERLKEEMLGKLKDLGNLVLRPFGLSTENFQIKQDSSTGSYSINFVQNPNNNR [TTC1]	0.455	56.2	56.4	0.183	-3	-2.41
MGEPQGSMRILVTGGSGLVGKAIQKVVADGAGLPGEDWVFVSSKDADLTDTAQTRALFEKVQPTHVIHLAAMVGGLFRNIKYNLDFWRKNVHMNDNVLHSAFEVGARKVVSCLSTCIFPDKTTYPIDETMIHNGPPHNSNFGYSYAKRMIDVQNRAYFQQYGCTFTAVIPTNVFGPHDNFNIEDGHVLPGLIHKVHLAKSSGSALTVWGTGNPRRQFIYSLDLAQLFIWVLREYNEVEPIILSVGEEDEVSIKEAAEAVVEAMDFHGEVTFDTTKSDGQFKKTASNSKLRTYLPDFRFTPFKQAVKETCAWFTDNYEQARK [TSTA3]	0.141	59.3	58.2	-0.116	-3.68	-2.17
MGFGDLKSPAGLQVLNDYLADKSYIEGYVPSQADVAVFEAVSSPPPADLCHALRWYNHIKSYEKEKASLPGVKKALGKYGPADVEDTTGSGATDSKDDDDIDLFGSDDEEESEEAKRLREERLAQYESKKAKKPALVAKSSILLDVKPWDDETDMAKLEECVRSIQADGLVWGSSKLVPVGYGIKKLQIQCVVEDDKVGTDMLEEQITAFEDYVQSMDVAAFNKI [EEF1B2]	0.522	50.7	50.6	0.236	-1.43	-1.91
MGHPPLLPLLLLLHTCVPASWGLRCMQCKTNGDCRVEECALGQDLCRTTIVRLWEEGEELELVEKSCTHSEKTNRTLSYRTGLKITSLTEVVCGLDLCNQGNSGRAVTYSRSRYLECISCGSSDMSCERGRHQSLQCRSPEEQCLDVVTHWIQEGEEGRPKDDRHLRGCGYLPGCPGSNGFHNNDTFHFLKCCNTTKCNEGPILELENLPQNGRQCYSCKGNSTHGCSSEETFLIDCRGPMNQCLVATGTHEPKNQSYMVRGCATASMCQHAHLGDAFSMNHIDVSCCTKSGCNHPDLDVQYRSGAAPQPGPAHLSLTITLLMTARLWGGTLLWT [PLAUR]	0.19	52.8	56.2	-0.232	0.197	4.92
MGKGDPKKPRGKMSSYAFFVQTCREEHKKKHPDASVNFSEFSKKCSERWKTMSAKEKGKFEDMAKADKARYEREMKTYIPPKGETKKKFKDPNAPKRPPSAFFLFCSEYRPKIKGEHPGLSIGDVAKKLGEMWNNTAADDKQPYEKKAAKLKEKYEKDIAAYRAKGKPDAAKKGVVKAEKSKKKKEEEEDEEDEEDEEEEEDEEDEDEEEDDDDE [HMGB1]	0.464	55.4	54.4	0.257	3.27	2.58
MGKGDPNKPRGKMSSYAFFVQTCREEHKKKHPDSSVNFAEFSKKCSERWKTMSAKEKSKFEDMAKSDKARYDREMKNYVPPKGDKKGKKKDPNAPKRPPSAFFLFCSEHRPKIKSEHPGLSIGDTAKKLGEMWSEQSAKDKQPYEQKAAKLKEKYEKDIAAYRAKGKSEAGKKGPGRPTGSKKKNEPEDEEEEEEEEDEDEEEEDEDEE [HMGB2]	0.485	58.1	56.7	0.338	0.292	-0.27
MGKIALQLKATLENITNLRPVGEDFRWYLKMKCGNCGEISDKWQYIRLMDSVALKGGRGSASMVQKCKLCARENSIEILSSTIKPYNAEDNENFKTIVEFECRGLEPVDFQPQAGFAAEGVESGTAFSDINLQEKDWTDYDEKAQESVGIYEVTHQFVKC [C1ORF123]	-0.207	52.2	52.1	-0.125	-0.132	0.084
MGKKQKNKSEDSTKDDIDLDALAAEIEGAGAAKEQEPQKSKGKKKKEKKKQDFDEDDILKELEELSLEAQGIKADRETVAVKPTENNEEEFTSKDKKKKGQKGKKQSFDDNDSEELEDKDSKSKKTAKPKVEMYSGSDDDDDFNKLPKKAKGKAQKSNKKWDGSEEDEDNSKKIKERSRINSSGESGDESDEFLQSRKGQKKNQKNKPGPNIESGNEDDDASFKIKTVAQKKAEKKERERKKRDEEKAKLRKLKEKEELETGKKDQSKQKESQRKFEEETVKSKVTVDTGVIPASEEKAETPTAAEDDNEGDKKKKDKKKKKGEKEEKEKEKKKGPSKATVKAMQEALAKLKEEEERQKREEEERIKRLEELEAKRKEEERLEQEKRERKKQKEKERKERLKKEGKLLTKSQREARARAEATLKLLQAQGVEVPSKDSLPKKRPIYEDKKRKKIPQQLESKEVSESMELCAAVEVMEQGVPEKEETPPPVEPEEEEDTEDAGLDDWEAMASDEETEKVEGNKVHIEVKENPEEEEEEEEEEEEDEESEEEEEEEGESEGSEGDEEDEKVSDEKDSGKTLDKKPSKEMSSDSEYDSDDDRTKEERAYDKAKRRIEKRRLEHSKNVNTEKLRAPIICVLGHVDTGKTKILDKLRHTHVQDGEAGGITQQIGATNVPLEAINEQTKMIKNFDRENVRIPGMLIIDTPGHESFSNLRNRGSSLCDIAILVVDIMHGLEPQTIESINLLKSKKCPFIVALNKIDRLYDWKKSPDSDVAATLKKQKKNTKDEFEERAKAIIVEFAQQGLNAALFYENKDPRTFVSLVPTSAHTGDGMGSLIYLLVELTQTMLSKRLAHCEELRAQVMEVKALPGMGTTIDVILINGRLKEGDTIIVPGVEGPIVTQIRGLLLPPPMKELRVKNQYEKHKEVEAAQGVKILGKDLEKTLAGLPLLVAYKEDEIPVLKDELIHELKQTLNAIKLEEKGVYVQASTLGSLEALLEFLKTSEVPYAGINIGPVHKKDVMKASVMLEHDPQYAVILAFDVRIERDAQEMADSLGVRIFSAEIIYHLFDAFTKYRQDYKKQKQEEFKHIAVFPCKIKILPQYIFNSRDPIVMGVTVEAGQVKQGTPMCVPSKNFVDIGIVTSIEINHKQVDVAKKGQEVCVKIEPIPGESPKMFGRHFEATDILVSKISRQSIDALKDWFRDEMQKSDWQLIVELKKVFEII [EIF5B]	-0.19	51.5	51.6	0.0872	1.35	2.42
MGKKSRAVPGRRPILQLSPPGPRGSTPGRDPEPEPDTEPDSTAAVPSQPAPSAATTTTTAVTAAAASDDSPSEDEQEAVQEVPRVVQNPPKPVMTTRPTAVKATGGLCLLGAYADSDDDDNDVSEKLAQSKETNGNQSTDIDSTLANFLAEIDAITAPQPAAPVGASAPPPTPPRPEPKEAATSTLSSSTSNGTDSTQTSGWQYDTQCSLAGVGIEMGDWQEVWDENTGCYYYWNTQTNEVTWELPQYLATQVQGLQHYQPSSVPGAETSFVVNTDIYSKEKTISVSSSKSGPVIAKREVKKEVNEGIQALSNSEEEKKGVAASLLAPLLPEGIKEEEERWRRKVICKEEPVSEVKETSTTVEEATTIVKPQEIMLDNIEDPSQEDLCSVVQSGESEEEEEQDTLELELVLERKKAELRALEEGDGSVSGSSPRSDISQPASQDGMRRLMSKRGKWKMFVRATSPESTSRSSSKTGRDTPENGETAIGAENSEKIDENSDKEMEVEESPEKIKVQTTPKVEEEQDLKFQIGELANTLTSKFEFLGINRQSISNFHVLLLQTETRIADWREGALNGNYLKRKLQDAAEQLKQYEINATPKGWSCHWDRDHRRYFYVNEQSGESQWEFPDGEEEEEESQAQENRDETLAKQTLKDKTGTDSNSTESSETSTGSLCKESFSGQVSSSSLMPLTPFWTLLQSNVPVLQPPLPLEMPPPPPPPPESPPPPPPPPPPAEDGEIQEVEMEDEGSEEPPAPGTEEDTPLKPSAQTTVVTSQSSVDSTISSSSSTKGIKRKATEISTAVVQRSATIGSSPVLYSQSAIATGHQAAGIGNQATGIGHQTIPVSLPAAGMGHQARGMSLQSNYLGLAAAPAIMSYAECSVPIGVTAPSLQPVQARGAVPTATIIEPPPPPPPPPPPPPPAPKMPPPEKTKKGRKDKAKKSKTKMPSLVKKWQSIQRELDEEDNSSSSEEDRESTAQKRIEEWKQQQLVSGMAERNANFEALPEDWRARLKRRKMAPNT [FNBP4]	-0.323	62.5	62.1	0.168	-4.32	-4.84
